# According to patent US20250295734A1, “ANTICOAGULANT PROTEINS AND THEIR USE FOR TREATING DISEASES ASSOCIATED WITH THE ACTIVATION OF NEUTROPHILS” (BIOXODES, priority 2018, published 2025):
# B1: Ir-CPI: Ixodes ricinus salivary gland polypeptide, contact phase inhibitor, MW=7660 Da; sequence SEQ ID NO: 1 or SEQ ID NO: 2 (protein)
# chain: ANHKGRGRPAKCKLPPDDGPCRARIPSYYFDRKTKTCKEFMYGGCEGNENNFENITTCQEECRAKKV
# Key:
# [1] = test system: human neutrophils; assay: Apoptosis/necrosis assay (Annexin V / Propidium Iodide); type: cell-based; details: recombinant Ir-CPI 15.3 μg/mL (2 μM); 1 h incubation; 4 donors
# Description: The effect of recombinant Ir-CPI on apoptosis/necrosis of human neutrophils was assessed. For this purpose, freshly isolated neutrophils from 4 donors were pre-treated for 1 h with recombinant Ir-CPI at 15.3 μg/mL and then incubated with Annexin V-FITC, with Propidium Iodide (PI) and with anti-human CD66b-PE antibody for cell identification. As negative control, neutrophils were only incubated with Annexin V-PI and CD66b for cell identification.
# Polymorphonuclear neutrophils (PMNs) were isolated with StraightFrom® Whole Blood CD15 MicroBeads kits from Miltenyi Biotech. Briefly, after erythrocytes lysis, the blood cells were incubated in the presence of CD15 microbeads. Blood cells were washed with separation buffer and centrifuged at 300 g for 10 min at room temperature. The pellets containing magnetically labeled cells were resuspended in separation buffer and applied to the equilibrated whole blood column placed on the QuadroMACS. After extensive washing, the column was removed from the magnetic separator, and labeled cells were eluted using whole blood elution buffer. Finally, the PMNs were centrifuged at 300 g for 10 min and resuspended in Hank's buffer with calcium and magnesium. […]
# Apoptosis was detected by initially staining the cells with Annexin V and Propidium Iodide solution followed by flow cytometry analysis. […]
# [2] = Dissolution in NaCl 0.9% (solubility limit); type: physicochemical
# Description: Ir-CPI was freshly prepared on the testing day by dissolution in NaCl 0.9% to reach the concentration of 50 mg/mL (corresponding to the maximal concentration to reach to avoid solubility issues).
# [3] = biological target: Factor Xa (Homo sapiens, UniProt P00742); details: cited from earlier work
# [4] = test system: neutrophils isolated from bone marrow of femurs of mice; assay: Neutrophil activation following incubation with ATP (flow cytometry); type: cell-based, mice (C57BL/6)
# Description: Neutrophils were isolated from the bone marrow of femurs of mice (C57BL/6) as previously described (Hu 2012), using FR-1-coupled magnetic beads (anti-Ly6G Microbead Kit, Miltenyi Biotec). For activation with TFNα, cells were harvested, centrifugated and incubated during 30 min with or without 2 ng/ml of TNFα in Hanks solution (Gibco). Next, neutrophils were incubated with Ir-CPI (0.65 or 2 μM) in Hanks solution (1 h at 37° C.). For activation with ATP, cells were harvested, centrifugated and incubated with ATP 10 μM and Ir-CPI (0.65 or 2 μM) in Hanks solution (1 h at 37° C.). After washing of cells, expression of CD11b, activated CD11b or Ly6G was assessed by flow cytometry (Beckman Coulter Gallios). Antibodies used for neutrophil identification and activation analyses were IRR IgG1-FITC (irrelevant antibody), anti-CD45-APC, anti-Ly6G-PE and anti-CD11b-FITC or Alexa Fluor 647 anti-activated CD11b-. Analysis of results was performed using the Kaluza software (Beckman Coulter).
# Percentage of activation marker expression was presented as mean±SEM (n=3independent experiments for TNFα activation and n=2 independent experiments for ATP activation). For experiments with TNFα activation, a one-way ANOVA followed by a
# Neutrophils isolated from bone marrow of femurs of mice were submitted to different in vitro experimental conditions (untreated control or incubation with Ir-CPI, and with or without ATP) to assess the effect of Ir-CPI on their activation status. The activation status was assessed by analyzing the percentage of CD11b, activated CD11b and Ly6G expressions at the surface of neutrophils (FIG. 17).
# [5] = test system: thrombin generation induced by TF (extrinsic pathway activator); details: induced by low concentration of TF (5 pM); cited from earlier work
# [6] = biological target: Factor XIa (Homo sapiens, UniProt P03951); details: cited from earlier work
# [7] = biological target: T1, FXIa (Homo sapiens, UniProt P03951); details: cited from earlier work
# [8] = biological target: T1, FXIa; details: aPTT-based test, FXI deficient plasma; cited from earlier work
# [9] = biological target: T2, FXIIa (Homo sapiens, UniProt P00748); details: aPTT-based test, FXII deficient plasma; cited from earlier work
# T2 construct: The resulting α-FXIIa has a heavy chain of 50 kDa, connected to a light chain of 28 kDa
# T2 sequence (P00748 20-372 limits assumed): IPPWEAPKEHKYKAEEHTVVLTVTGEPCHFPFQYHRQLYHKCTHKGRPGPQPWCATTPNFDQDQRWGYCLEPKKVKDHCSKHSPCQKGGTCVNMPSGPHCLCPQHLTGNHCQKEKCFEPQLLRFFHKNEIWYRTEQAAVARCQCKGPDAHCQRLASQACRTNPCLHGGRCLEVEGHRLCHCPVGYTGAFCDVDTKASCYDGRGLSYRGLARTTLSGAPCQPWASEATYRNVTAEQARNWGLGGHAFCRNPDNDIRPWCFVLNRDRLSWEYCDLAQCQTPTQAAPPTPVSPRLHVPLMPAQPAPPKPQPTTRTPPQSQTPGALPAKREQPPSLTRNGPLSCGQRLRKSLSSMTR
# T2 sequence (P00748 373-615 limits assumed): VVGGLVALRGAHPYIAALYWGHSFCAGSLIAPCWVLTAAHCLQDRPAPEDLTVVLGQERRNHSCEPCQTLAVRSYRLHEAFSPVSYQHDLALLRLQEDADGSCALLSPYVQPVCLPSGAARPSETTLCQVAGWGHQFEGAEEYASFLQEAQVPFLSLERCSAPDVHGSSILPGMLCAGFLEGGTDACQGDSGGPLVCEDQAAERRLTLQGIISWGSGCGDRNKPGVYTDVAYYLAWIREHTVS
# T1 sequence (P03951 19-387 limits assumed): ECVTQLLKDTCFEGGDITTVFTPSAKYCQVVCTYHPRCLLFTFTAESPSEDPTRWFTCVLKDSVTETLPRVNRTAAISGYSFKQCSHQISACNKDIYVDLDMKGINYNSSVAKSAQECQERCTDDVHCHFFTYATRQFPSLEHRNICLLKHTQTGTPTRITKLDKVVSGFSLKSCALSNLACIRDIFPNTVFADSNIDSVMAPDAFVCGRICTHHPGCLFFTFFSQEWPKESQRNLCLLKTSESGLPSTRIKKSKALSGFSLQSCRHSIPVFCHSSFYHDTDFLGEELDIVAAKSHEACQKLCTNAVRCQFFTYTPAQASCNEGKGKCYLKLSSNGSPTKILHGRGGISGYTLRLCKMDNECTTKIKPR
# T1 sequence (P03951 388-625 limits assumed): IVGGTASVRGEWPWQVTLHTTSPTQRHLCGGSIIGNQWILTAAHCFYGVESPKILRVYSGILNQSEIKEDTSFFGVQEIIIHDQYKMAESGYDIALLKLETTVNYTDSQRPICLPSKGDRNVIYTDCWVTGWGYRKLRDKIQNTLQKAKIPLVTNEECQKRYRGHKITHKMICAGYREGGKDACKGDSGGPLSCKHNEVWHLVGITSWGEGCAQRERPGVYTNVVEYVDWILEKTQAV
# Factor XIa, sequence (P03951 19-387 limits assumed): as the sequence (P03951 19-387 limits assumed) above
# Factor XIa, sequence (P03951 388-625 limits assumed): as the sequence (P03951 388-625 limits assumed) above
# Factor Xa, sequence (P00742 41-179 limits assumed): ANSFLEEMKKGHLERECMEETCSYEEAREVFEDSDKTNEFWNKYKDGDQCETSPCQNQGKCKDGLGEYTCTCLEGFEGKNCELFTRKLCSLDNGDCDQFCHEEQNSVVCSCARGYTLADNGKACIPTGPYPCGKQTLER
# Factor Xa, sequence (P00742 235-488 limits assumed): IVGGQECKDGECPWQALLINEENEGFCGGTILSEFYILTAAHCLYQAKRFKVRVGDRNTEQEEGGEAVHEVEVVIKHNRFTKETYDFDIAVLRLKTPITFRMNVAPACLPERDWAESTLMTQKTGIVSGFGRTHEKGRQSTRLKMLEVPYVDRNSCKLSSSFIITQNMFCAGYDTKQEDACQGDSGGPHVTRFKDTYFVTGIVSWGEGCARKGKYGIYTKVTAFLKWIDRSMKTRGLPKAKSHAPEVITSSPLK
molecule,measurement,setting,value
B1,induction of apoptosis,[1],did not induce apoptosis
same,"mean necrotic, dead, apoptotic, and live cells vs negative control",[1],no statistical difference
same,maximal concentration to reach to avoid solubility issues,[2],50 mg/mL
same,activity on Factor Xa,[3],totally inactive
same,expression of Ly6G at the surface of neutrophils,"[4]; ATP 10 μM, Ir-CPI 0.65 or 2 μM (FIG. 17A)",decreased
same,expression of activated CD11b at the surface of neutrophils,"[4]; ATP 10 μM, Ir-CPI 0.65 or 2 μM (FIG. 17C)",significantly decreased
same,expression of CD11b,"[4]; ATP experiment (FIG. 17B), Ir-CPI 0.65 and 2 μM",no effect
same,thrombin generation,[5],quite inactive
same,activation of Factor XII by Factor XIa,[6],inhibit activation
same,binding to FXIa,[7],binds
same,FXIa clotting activity,[8],inhibits
same,FXIIa clotting activity,[9],inhibits
